From patent US6429298

Tested on: Modified p53 (human p53 engineered to contain the HIV-1 protease cleavage site VSFNFPQITL upstream o)

Substance: HIV-1 protease
- SDS-PAGE migration of purified p53 fusion protein after co-expression with HIV-1 protease (cleavage): The mutagenized p53 migrated more quickly than the wild-type protein (as did p53Δ30), but only after coexpression with HIV-1 protease.
